Reference: paper PMC9352680, “A comprehensive thermodynamic model for RNA binding by the Saccharomyces cerevisiae Pumilio protein PUF4”

T1: PUF4 RNA-binding domain (Saccharomyces cerevisiae, UniProt P25339 537-888)
T1 sequence: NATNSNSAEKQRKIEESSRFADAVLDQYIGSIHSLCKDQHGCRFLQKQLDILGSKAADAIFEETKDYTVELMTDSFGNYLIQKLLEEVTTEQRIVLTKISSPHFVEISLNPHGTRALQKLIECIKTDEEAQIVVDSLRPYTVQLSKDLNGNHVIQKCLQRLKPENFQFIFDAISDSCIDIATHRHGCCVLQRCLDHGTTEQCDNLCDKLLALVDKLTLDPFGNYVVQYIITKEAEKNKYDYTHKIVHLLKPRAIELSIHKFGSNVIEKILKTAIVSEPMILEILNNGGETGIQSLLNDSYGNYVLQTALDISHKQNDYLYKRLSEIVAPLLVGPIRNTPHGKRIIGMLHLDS


Biological target: T1, PUF4 RNA-binding domain
Assay: Mg; RNA-MaP; 20 mM Na-HEPES pH 7.4, 30 mM KOAc, 0.75 mM MgCl2, 0.1% Tween-20, 5% glycerol, 0.1 mg/mL BSA, 2 mM DTT; 25 C; 0.0125-409.6 nM protein
Conditions: tags: N-His6-TEV cleaved; C-SNAP kept, Cy3B-labelled; label: tethered on chip by stalled RNA polymerase

Binder | Kd
UCUCUUUUUAUUAUUUUCUCUU (ssRNA) [Ib_S1_P5E.1_K5.1_C5.1_H5.1_[G2T]_A5.1_F5.1_[A10T]_T5.1] | > 2300 nM
UCUCUUUAUAUUAUUUUCUCUU (ssRNA) [Ib_S1_P5E.1_K5.1_C5.1_H5.1_[G2A]_A5.1_F5.1_[A10T]_T5.1] | 473 nM
UCUCUUUGCAUUAUUCUCUCUU (ssRNA) [Ib_S1_P5E.1_K5.1_C5.1_H5.1_[T3C]_A5.1_F5.1_[A10C]_T5.1] | > 2300 nM
Id_ii_S2_P4E.3_K4.2_C4.2_[C-2G]_H4.2_A4.1_F4.1_T4.2_[G10T] (ssRNA) RNA: UUUGAUUAAUAUGAUAUCGUUCUUUCUGUUAUAUAUUAUUUUCUUUCUCGAUAUCAUAUUAAUCUUU | 7.68 nM
Id_ii_S2_P4E.3_K4.2_C4.2_[C-2T]_H4.2_A4.1_F4.1_T4.2_[G10T]_[T11G] (ssRNA) RNA: UUUGAUUAAUAUGAUAUCGUUCUUUCUUUUAUAUAUUAUGUUCUUUCUCGAUAUCAUAUUAAUCUUU | 6.27 nM
Id_ii_S2_P4E.3_K4.2_C4.2_[C-2T]_H4.2_A4.1_F4.1_T4.2 (ssRNA) RNA: UUUGAUUAAUAUGAUAUCGUUCUUUCUUUUAUAUAUUAGUUUCUUUCUCGAUAUCAUAUUAAUCUUU | 9.27 nM
Id_ii_S2_P4E.3_K4.2_C4.2_[C-2T]_[T-1A]_H4.2_A4.1_F4.1_T4.2_[G10T] (ssRNA) RNA: UUUGAUUAAUAUGAUAUCGUUCUUUCUUAUAUAUAUUAUUUUCUUUCUCGAUAUCAUAUUAAUCUUU | 14.9 nM
Id_ii_S2_P4E.3_K4.2_C4.2_[C-2T]_[T-1G]_H4.2_A4.1_F4.1_T4.2_[G10A]_[T11C] (ssRNA) RNA: UUUGAUUAAUAUGAUAUCGUUCUUUCUUGUAUAUAUUAACUUCUUUCUCGAUAUCAUAUUAAUCUUU | 4.44 nM
Id_ii_S2_P4E.3_K4.2_C4.2_[C-2T]_[T-1C]_H4.2_A4.1_F4.1_T4.2_[G10C] (ssRNA) RNA: UUUGAUUAAUAUGAUAUCGUUCUUUCUUCUAUAUAUUACUUUCUUUCUCGAUAUCAUAUUAAUCUUU | 6.91 nM
Id_ii_S2_P4E.3_K4.2_C4.2_[C-2T]_[T-1G]_H4.2_A4.1_F4.1_T4.2_[G10A]_[T11A] (ssRNA) RNA: UUUGAUUAAUAUGAUAUCGUUCUUUCUUGUAUAUAUUAAAUUCUUUCUCGAUAUCAUAUUAAUCUUU | 2.31 nM
Id_ii_S2_P4E.3_K4.2_C4.2_[C-2T]_H4.2_A4.1_F4.1_T4.2_[G10T]_[T11A] (ssRNA) RNA: UUUGAUUAAUAUGAUAUCGUUCUUUCUUUUAUAUAUUAUAUUCUUUCUCGAUAUCAUAUUAAUCUUU | 23.8 nM
Id_ii_S2_P4E.3_K4.2_C4.2_[C-2T]_H4.2_A4.1_F4.1_T4.2_[G10C]_[T11A] (ssRNA) RNA: UUUGAUUAAUAUGAUAUCGUUCUUUCUUUUAUAUAUUACAUUCUUUCUCGAUAUCAUAUUAAUCUUU | 8.41 nM
Id_ii_S2_P4E.3_K4.2_C4.2_[C-2T]_[T-1C]_H4.2_A4.1_F4.1_T4.2_[G10C]_[T11A] (ssRNA) RNA: UUUGAUUAAUAUGAUAUCGUUCUUUCUUCUAUAUAUUACAUUCUUUCUCGAUAUCAUAUUAAUCUUU | 11.5 nM
Id_ii_S2_P4E.3_K4.2_C4.2_[C-2T]_H4.2_A4.1_F4.1_T4.2_[G10A] (ssRNA) RNA: UUUGAUUAAUAUGAUAUCGUUCUUUCUUUUAUAUAUUAAUUUCUUUCUCGAUAUCAUAUUAAUCUUU | 17.3 nM
Id_ii_S2_P4E.3_K4.2_C4.2_[C-2T]_[T-1C]_H4.2_A4.1_F4.1_T4.2_[G10A]_[T11C] (ssRNA) RNA: UUUGAUUAAUAUGAUAUCGUUCUUUCUUCUAUAUAUUAACUUCUUUCUCGAUAUCAUAUUAAUCUUU | 8.95 nM
Id_ii_S2_P4E.3_K4.2_C4.2_[C-2T]_[T-1G]_H4.2_A4.1_F4.1_T4.2_[G10T]_[T11G] (ssRNA) RNA: UUUGAUUAAUAUGAUAUCGUUCUUUCUUGUAUAUAUUAUGUUCUUUCUCGAUAUCAUAUUAAUCUUU | 2.66 nM
Id_ii_S2_P4E.3_K4.2_C4.2_[C-2T]_H4.2_A4.1_F4.1_T4.2_[G10A]_[T11A] (ssRNA) RNA: UUUGAUUAAUAUGAUAUCGUUCUUUCUUUUAUAUAUUAAAUUCUUUCUCGAUAUCAUAUUAAUCUUU | 141 nM
Id_ii_S2_P4E.3_K4.2_C4.2_[C-2T]_[T-1C]_H4.2_A4.1_F4.1_T4.2_[G10A] (ssRNA) RNA: UUUGAUUAAUAUGAUAUCGUUCUUUCUUCUAUAUAUUAAUUUCUUUCUCGAUAUCAUAUUAAUCUUU | 8.89 nM

Binder | Kd
Id_ii_S2_P4E.3_K4.2_C4.2_[C-2T]_[T-1A]_H4.2_A4.1_F4.1_T4.2_[T11C] (ssRNA) RNA: UUUGAUUAAUAUGAUAUCGUUCUUUCUUAUAUAUAUUAGCUUCUUUCUCGAUAUCAUAUUAAUCUUU | 10.2 nM
Id_ii_S2_P4E.3_K4.2_C4.2_[C-2T]_[T-1C]_H4.2_A4.1_F4.1_T4.2_[G10C]_[T11G] (ssRNA) RNA: UUUGAUUAAUAUGAUAUCGUUCUUUCUUCUAUAUAUUACGUUCUUUCUCGAUAUCAUAUUAAUCUUU | 8.91 nM
Id_ii_S2_P4E.3_K4.2_C4.2_[C-2G]_H4.2_A4.1_F4.1_T4.2_[G10A]_[T11A] (ssRNA) RNA: UUUGAUUAAUAUGAUAUCGUUCUUUCUGUUAUAUAUUAAAUUCUUUCUCGAUAUCAUAUUAAUCUUU | 13.7 nM
Id_ii_S2_P4E.3_K4.2_C4.2_[C-2T]_H4.2_A4.1_F4.1_T4.2_[G10A]_[T11G] (ssRNA) RNA: UUUGAUUAAUAUGAUAUCGUUCUUUCUUUUAUAUAUUAAGUUCUUUCUCGAUAUCAUAUUAAUCUUU | 700 nM
Id_ii_S2_P4E.3_K4.2_C4.2_[C-2T]_[T-1A]_H4.2_A4.1_F4.1_T4.2_[G10C]_[T11A] (ssRNA) RNA: UUUGAUUAAUAUGAUAUCGUUCUUUCUUAUAUAUAUUACAUUCUUUCUCGAUAUCAUAUUAAUCUUU | 17.5 nM
Id_ii_S2_P4E.3_K4.2_C4.2_[C-2T]_[T-1A]_H4.2_A4.1_F4.1_T4.2_[G10C]_[T11C] (ssRNA) RNA: UUUGAUUAAUAUGAUAUCGUUCUUUCUUAUAUAUAUUACCUUCUUUCUCGAUAUCAUAUUAAUCUUU | 14.9 nM
Id_ii_S2_P4E.3_K4.2_C4.2_[C-2T]_H4.2_A4.1_F4.1_T4.2_[G10T]_[T11C] (ssRNA) RNA: UUUGAUUAAUAUGAUAUCGUUCUUUCUUUUAUAUAUUAUCUUCUUUCUCGAUAUCAUAUUAAUCUUU | 7.36 nM
Id_ii_S2_P4E.3_K4.2_C4.2_[C-2T]_[T-1G]_H4.2_A4.1_F4.1_T4.2 (ssRNA) RNA: UUUGAUUAAUAUGAUAUCGUUCUUUCUUGUAUAUAUUAGUUUCUUUCUCGAUAUCAUAUUAAUCUUU | 1.86 nM
Id_ii_S2_P4E.3_K4.2_C4.2_[C-2T]_[T-1C]_H4.2_A4.1_F4.1_T4.2_[G10A]_[T11A] (ssRNA) RNA: UUUGAUUAAUAUGAUAUCGUUCUUUCUUCUAUAUAUUAAAUUCUUUCUCGAUAUCAUAUUAAUCUUU | 18.5 nM
Id_ii_S2_P4E.3_K4.2_C4.2_[C-2A]_[T-1G]_H4.2_A4.1_F4.1_T4.2_[G10T]_[T11C] (ssRNA) RNA: UUUGAUUAAUAUGAUAUCGUUCUUUCUAGUAUAUAUUAUCUUCUUUCUCGAUAUCAUAUUAAUCUUU | 284 nM
Id_ii_S2_P4E.3_K4.2_C4.2_[C-2T]_H4.2_A4.1_F4.1_T4.2_[G10C]_[T11C] (ssRNA) RNA: UUUGAUUAAUAUGAUAUCGUUCUUUCUUUUAUAUAUUACCUUCUUUCUCGAUAUCAUAUUAAUCUUU | 8.62 nM
Id_ii_S2_P4E.3_K4.2_C4.2_[C-2T]_[T-1C]_H4.2_A4.1_F4.1_T4.2_[G10C]_[T11C] (ssRNA) RNA: UUUGAUUAAUAUGAUAUCGUUCUUUCUUCUAUAUAUUACCUUCUUUCUCGAUAUCAUAUUAAUCUUU | 8.5 nM
Id_ii_S2_P4E.3_K4.2_C4.2_[C-2T]_H4.2_A4.1_F4.1_T4.2_[T11C] (ssRNA) RNA: UUUGAUUAAUAUGAUAUCGUUCUUUCUUUUAUAUAUUAGCUUCUUUCUCGAUAUCAUAUUAAUCUUU | 5.53 nM
Id_ii_S2_P4E.3_K4.2_C4.2_[C-2T]_H4.2_A4.1_F4.1_T4.2_[G10C] (ssRNA) RNA: UUUGAUUAAUAUGAUAUCGUUCUUUCUUUUAUAUAUUACUUUCUUUCUCGAUAUCAUAUUAAUCUUU | 3.66 nM
Id_ii_S2_P4E.3_K4.2_C4.2_[C-2T]_[T-1C]_H4.2_A4.1_F4.1_T4.2_[G10T]_[T11A] (ssRNA) RNA: UUUGAUUAAUAUGAUAUCGUUCUUUCUUCUAUAUAUUAUAUUCUUUCUCGAUAUCAUAUUAAUCUUU | 13.5 nM
Id_ii_S2_P4E.3_K4.2_C4.2_[C-2T]_[T-1C]_H4.2_A4.1_F4.1_T4.2_[G10T]_[T11C] (ssRNA) RNA: UUUGAUUAAUAUGAUAUCGUUCUUUCUUCUAUAUAUUAUCUUCUUUCUCGAUAUCAUAUUAAUCUUU | 7 nM
Id_ii_S2_P4E.3_K4.2_C4.2_[C-2T]_[T-1A]_H4.2_A4.1_F4.1_T4.2_[G10A] (ssRNA) RNA: UUUGAUUAAUAUGAUAUCGUUCUUUCUUAUAUAUAUUAAUUUCUUUCUCGAUAUCAUAUUAAUCUUU | 17 nM
